{"source": "patent US20060172958", "target": "recombinant His-tagged PLS3 protein (pQE vector) (UniProt Q9NRY6)", "sequence (Q9NRY6 whole entry)": "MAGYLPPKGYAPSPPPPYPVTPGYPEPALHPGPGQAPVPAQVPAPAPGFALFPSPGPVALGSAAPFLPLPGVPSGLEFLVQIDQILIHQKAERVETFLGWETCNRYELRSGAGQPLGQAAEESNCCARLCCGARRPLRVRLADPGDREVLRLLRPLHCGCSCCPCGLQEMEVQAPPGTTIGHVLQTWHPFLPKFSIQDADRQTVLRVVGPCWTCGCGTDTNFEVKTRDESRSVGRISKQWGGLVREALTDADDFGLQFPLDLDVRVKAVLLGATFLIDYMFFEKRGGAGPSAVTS", "data": [{"substance": "recombinant PKC-δ enzyme (Calbiochem)", "values": [{"measurement": "in vitro phosphorylation", "value": "The PLS3 protein was a high-affinity substrate for PKC-δ and the phosphorylation steadily increased over the first 25 minutes"}, {"measurement": "km", "value": "it was determined that the km is 10.5 nM"}]}]}
